Measured values taken from patent US20080267980A1 (published 2008).
Where two headings read alike, the source gives them in different places. Values belong to the binder of their own block, whether it stands above or below them.

What was measured:
Assay in all cases: SPR
Human C3dg-biotin [1] = target: T1, Human C3dg-biotin (human, UniProt P01024 955-1303, biotin (site not stated) in the SPR experiments)
Human C3dg-biotin [2] = target: T1, Human C3dg-biotin; remark: listed apart in the source
Human C3dg-biotin [3] = target: T1, Human C3dg-biotin; remark: listed apart in the source
Human C3dg-biotin [4] = target: T1, Human C3dg-biotin; remark: listed apart in the source

T1 sequence (P01024 955-1303): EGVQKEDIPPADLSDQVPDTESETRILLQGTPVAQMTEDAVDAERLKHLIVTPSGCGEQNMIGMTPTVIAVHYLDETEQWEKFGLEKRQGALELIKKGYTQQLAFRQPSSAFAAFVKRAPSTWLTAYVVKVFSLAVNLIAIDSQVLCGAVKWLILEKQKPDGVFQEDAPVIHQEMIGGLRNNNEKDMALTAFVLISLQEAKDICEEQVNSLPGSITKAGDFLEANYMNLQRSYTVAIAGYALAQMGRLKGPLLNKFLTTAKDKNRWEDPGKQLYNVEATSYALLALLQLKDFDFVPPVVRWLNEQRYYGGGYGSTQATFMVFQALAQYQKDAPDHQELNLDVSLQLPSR

Kd (Human C3dg-biotin [1]): 15.5 nM
B1: CR2-CD59 (other)
chain: ISCGSPPPILNGRISYYSTPIAVGTVIRYSCSGTFRLIGEKSLLCITKDKVDGTWDKPAPKCEYFNKYSSCPEPIVPGGYKIRGSTPYRHGDSVTFACKTNFSMNGNKSVWCQANNMWGPTRLPTCVSVFPLECPALPMIHNGHHTSENVGSIAPGLSVTYSCESGYLLVGEKIINCLSSGKWSAVPPTCEEARCKSLGRFPNGKVKEPPILRVGVTANFFCDEGYRLQGPPSSRCVIAGQGVAWTKMPVCSGGGGSLQCYNCPNPTADCKTAVNCSSDFDACLITKAGLQVYNKCWKFEHCNFNDVTTRLRENELTYYCCKKDLCNFNEQLEN

Kd (Human C3dg-biotin [2]): 2600 nM
B2: DAF-CR2 (other)
chain: DCGLPPDVPNAQPALEGRTSFPEDTVITYKCEESFVKIPGEKDSVICLKGSQWSDIEEFCNRSCEVPTRLNSASLKQPYITQNYFPVGTVVEYECRPGYRREPSLSPKLTCLQNLKWSTAVEFCKKKSCPNPGEIRNGQIDVPGGILFGATISFSCNTGYKLFGSTSSFCLISGSSVQWSDPLPECREIYCPAPPQIDNGIIQGERDHYGYRQSVTYACNKGFTMIGEHSIYCTVNNDEGEWSGPPPECRSSGGGGSGGGGSGGGGSISCGSPPPILNGRISYYSTPIAVGTVIRYSCSGTFRLIGEKSLLCITKDKVDGTWDKPAPKCEYFNKYSSCPEPIVPGGYKIRGSTPYRHGDSVTFACKTNFSMNGNKSVWCQANNMWGPTRLPTCVSVFPLECPALPMIHNGHHTSENVGSIAPGLSVTYSCESGYLLVGEKIINCLSSGKWSAVPPTCEEARCKSLGRFPNGKVKEPPILRVGVTANFFCDEGYRLQGPPSSRCVIAGQGVAWTKMPVC

Kd (Human C3dg-biotin [3]): 451 nM
B3: CD59-CR2 (other)
chain: LQCYNCPNPTADCKTAVNCSSDFDACLITKAGLQVYNKCWKFEHCNFNDVTTRLRENELTYYCCKKDLCNFNEQLENSSGGGGSGGGGSGGGGSISCGSPPPILNGRISYYSTPIAVGTVIRYSCSGTFRLIGEKSLLCITKDKVDGTWDKPAPKCEYFNKYSSCPEPIVPGGYKIRGSTPYRHGDSVTFACKTNFSMNGNKSVWCQANNMWGPTRLPTCVSVFPLECPALPMIHNGHHTSENVGSIAPGLSVTYSCESGYLLVGEKIINCLSSGKWSAVPPTCEEARCKSLGRFPNGKVKEPPILRVGVTANFFCDEGYRLQGPPSSRC

Kd (Human C3dg-biotin [4]): 129 nM
B4: CR2-DAF (other)
chain: ISCGSPPPILNGRISYYSTPIAVGTVIRYSCSGTFRLIGEKSLLCITKDKVDGTWDKPAPKCEYFNKYSSCPEPIVPGGYKIRGSTPYRHGDSVTFACKTNFSMNGNKSVWCQANNMWGPTRLPTCVSVFPLECPALPMIHNGHHTSENVGSIAPGLSVTYSCESGYLLVGEKIINCLSSGKWSAVPPTCEEARCKSLGRFPNGKVKEPPILRVGVTANFFCDEGYRLQGPPSSRCVIAGQGVAWTKMPVCGGGSGGGGSDCGLPPDVPNAQPALEGRTSFPEDTVITYKCEESFVKIPGEKDSVICLKGSQWSDIEEFCNRSCEVPTRLNSASLKQPYITQNYFPVGTVVEYECRPGYRREPSLSPKLTCLQNLKWSTAVEFCKKKSCPNPGEIRNGQIDVPGGILFGATISFSCNTGYKLFGSTSSFCLISGSSVQWSDPLPECREIYCPAPPQIDNGIIQGERDHYGYRQSVTYACNKGFTMIGEHSIYCTV
